Measured values reported in paper PMC9935546.

Molecular target: T1, endogenous VDAC2 (voltage-dependent anion-selective channel protein 2) (human (endogenous in HONE1 and SUNE1)), P45880
T1 chain: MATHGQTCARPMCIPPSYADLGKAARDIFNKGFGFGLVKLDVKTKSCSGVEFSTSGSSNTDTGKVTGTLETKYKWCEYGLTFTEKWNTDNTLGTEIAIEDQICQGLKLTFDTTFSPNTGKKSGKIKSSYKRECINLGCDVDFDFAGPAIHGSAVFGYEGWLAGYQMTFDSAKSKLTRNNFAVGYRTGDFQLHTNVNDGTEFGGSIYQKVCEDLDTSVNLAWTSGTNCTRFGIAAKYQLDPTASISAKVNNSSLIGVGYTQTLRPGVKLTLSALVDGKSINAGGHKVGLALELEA
Experiment: cross-linking; NPC cells in PBS with 5 mM DSS, 37 °C, 30 min, quenched with 20 mM Tris-HCl; Western blot; 24 h after IR; WT and TRIM21-KO cells
Conditions: remark: other sources report otherwise

B1: endogenous VDAC2 (voltage-dependent anion-selective channel protein 2), P45880 1-294 (natural protein)
chain: MATHGQTCARPMCIPPSYADLGKAARDIFNKGFGFGLVKLDVKTKSCSGVEFSTSGSSNTDTGKVTGTLETKYKWCEYGLTFTEKWNTDNTLGTEIAIEDQICQGLKLTFDTTFSPNTGKKSGKIKSSYKRECINLGCDVDFDFAGPAIHGSAVFGYEGWLAGYQMTFDSAKSKLTRNNFAVGYRTGDFQLHTNVNDGTEFGGSIYQKVCEDLDTSVNLAWTSGTNCTRFGIAAKYQLDPTASISAKVNNSSLIGVGYTQTLRPGVKLTLSALVDGKSINAGGHKVGLALELEA
Question: Which stoichiometry N does the source give for B1 here?
Answer: > 3
